The values below come from article doi:10.1101/585943 (bioRxiv, 2019).

The data set concerns the molecule itself. The data set can be described thus: cryo-EM structure.

B1: SgrAI, type II restriction endonuclease, his-tagged wild type (enzyme, Streptomyces griseus)
chain: PFTYSIEATRNLATTERCIQDIRNAPVRNRSTQFQLAQQNMLAYTFGEVIPGFASAGINGMNYRDVIGRPVENAVTEGTHFFRDDFRVDSNAKAKVAGDIFEIVSSAVMWNCAARWNSLMVGEGWRSQPRYSRPTLSPSPRRQVAVLNLPRSFDWVSLLVPESQEVIEEFRAGLRKDGLGLPTSTPDLAVVVLPEEFQNDEMWREEIAGLTRPNQILLSGAYQRLQGRVQPGEISLAVAFKRSLRSDRLYQPLYEANVMQLLLEGKLGAPKVEFEVHTLAPEGTNAFVTYEAASLYGLAEGRSAVHRAIRELYVPPTAADLARRFFAFLNERMELVNG
As for B1, the binding result was “binds”.
